Here are results for three molecules from publication PMC2586972 (Structure (London, England : 1993), 2008).

One assay concerns the target T1, Gα13 (Mus musculus, UniProt P27601).
T1 chain: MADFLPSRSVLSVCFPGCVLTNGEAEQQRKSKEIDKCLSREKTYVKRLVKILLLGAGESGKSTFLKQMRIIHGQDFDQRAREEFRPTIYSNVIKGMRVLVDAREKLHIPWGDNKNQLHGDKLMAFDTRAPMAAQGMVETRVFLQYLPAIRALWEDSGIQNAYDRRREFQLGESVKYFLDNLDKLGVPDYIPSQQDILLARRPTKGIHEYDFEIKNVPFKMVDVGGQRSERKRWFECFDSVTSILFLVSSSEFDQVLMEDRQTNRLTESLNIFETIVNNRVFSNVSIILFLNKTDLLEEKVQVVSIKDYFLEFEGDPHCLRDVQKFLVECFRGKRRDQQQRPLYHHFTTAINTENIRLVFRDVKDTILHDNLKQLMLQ
Nature of the assay: ITC. Background: Isothermal titration calorimetry measures the heat released or taken up as one component is titrated into another.

Assay [1] addresses T2, N-terminally truncated Gα13(Q226L), GDP-bound (mouse, UniProt P27601 41-377, Q226L).
T2 sequence (looked up): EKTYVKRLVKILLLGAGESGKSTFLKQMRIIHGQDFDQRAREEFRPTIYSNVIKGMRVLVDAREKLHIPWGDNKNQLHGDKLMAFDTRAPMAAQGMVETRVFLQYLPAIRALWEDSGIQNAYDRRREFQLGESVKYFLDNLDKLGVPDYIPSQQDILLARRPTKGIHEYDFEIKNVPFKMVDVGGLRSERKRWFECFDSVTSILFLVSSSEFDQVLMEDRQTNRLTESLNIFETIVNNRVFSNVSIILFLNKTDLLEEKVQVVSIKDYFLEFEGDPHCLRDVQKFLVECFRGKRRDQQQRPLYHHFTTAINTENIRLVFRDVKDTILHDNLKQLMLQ
Put plainly: crystal structure.

B1: PDZRhoGEF rgRGS (protein)
chain: ESDIIFQDLEKLKSRPAHLGVFLRYIFSQADPSPLLFYLCAEVYQQASPKDSRSLGKDIWNIFLEKNAPLRVKIPEMLQAEIDSRLRNSEDARGVLCEAQEAAMPEIQEQIHDYRTKRTLGLGSLYGENDLLDLDGDPLRERQVAEKQLAALGDILSKYEEDRSAPMDFALNTYMSHAGIR
modifications: GDP·AlF-bound Gα13
B1: in the assay with Gα13, the Kd is ~500 nM.

B2: PDZRhoGEF rgRGS (protein)
chain: B1 chain
modifications: GTPγS-bound Gα13
For B2, the Kd in the assay with Gα13 was ~300 nM.

B3: rgRGS domain of PDZRhoGEF/GTRAP48 (residues 307–508) (domain or fragment, rat, UniProt Q9ES67 307-508, looked up)
chain: LIIGPEEDYDPGYFNNESDIIFQDLEKLKSHPAYLVVFLRYILSQADPGPLLFYLCSEVYQQTNPKDSRSLGKDIWNIFLEKNAPLRVKIPEMLQAEIDLRLRNNEDPRNVLCEAQEAVMLEIQEQINDYRSKRTLGLGSLYGENDLLGLDGDPLRERQMAEKQLAALGDILSKYEEDRSAPMDFAVNTFMSHAGIRLRESR
As for B3, in assay [1], the binding result is given as “binds”.

What is called Kd is the free concentration of one partner at which half of the binding sites on the other are occupied at equilibrium, for simple one-to-one binding. The low end stands for a tighter complex, the high end for a looser complex.
